Reference: patent US20240410900A1 (Hoffmann-La Roche, published 2024)

Tests used:
[1] = target: T1, anti-VEGF/ANG2 antibody (wild-type IgG1 subclass) (UniProt P01857-1 1-330 = IgG part); test: ELISA assay B, tracer M1.7.10-Dig, target 6 ng/mL
T1 construct: also called sample 5; antibody 5
Description: (§1) Biotinylated anti-PG Fc-region antibody or biotinylated anti-AAA Fc-region antibody, respectively, was bound to the wells of a streptavidin-coated multi-well plate (SA-MTP) to produce a capture plate. Excess of unbound antibody was removed by washing. Sample/standard antibodies spiked in human and cynomolgus monkey serum (10% final concentration) was added to wells of the SA-MTP multi-well plate coated with the capture plate and incubated for 1 hour at room temperature. After washing, the wells were incubated with digoxygenylated anti-human kappa antibody M1.7.10 (see e.g. WO 2011/048043, incorporated herein by reference). After washing the bound digoxygenylated anti-human kappa antibody complex was incubated with a horseradish peroxidase (HRP) labelled anti-digoxygenin antibody. After another washing step, an ABTS solution was added to the wells and incubated. The product of the color reaction was measured by Elisa reader at 405 nm wavelength (reference wavelength: 490 nm). Absorbance values of each sample or standard were determined in triplicates.

[2] = target: T2, anti-VEGF/ANG2 antibody (IgG1 subclass with mutations P329G/L234A/L235A); test: ELISA assay B, tracer M1.7.10-Dig, target 6 ng/mL
T2 construct: Positions are EU numbers; also called sample 2; antibody 2
Description: as §1

[3] = target: T3, anti-VEGF/ANG2 antibody (IgG1 subclass with mutations P329G/L234A/L235A/I253A/H310A/H435A); test: ELISA assay B, tracer M1.7.10-Dig, target 6 ng/mL
T3 construct: Format of the bispecific antibody not described; Positions are EU numbers, not positions on the UniProt entry; also called sample 1; antibody 1
Description: as §1

[4] = target: T1, anti-VEGF/ANG2 antibody (wild-type IgG1 …); test: ELISA assay B, tracer M1.7.10-Dig, target 100 ng/mL
Description: as §1

[5] = target: T4, anti-P-Selectin antibody (IgG4 subclass with mutations S228P/L235E); test: as above
T4 construct: Positions are EU numbers; also called sample 4; antibody 4
Description: as §1

[6] = target: T2, anti-VEGF/ANG2 antibody (IgG1 subclass …); test: as above
Description: as §1

[7] = target: T3, anti-VEGF/ANG2 antibody (IgG1 subclass …); test: as above
Description: as §1

[8] = target: T5, anti-IGF-1R antibody (IgG1 subclass with mutations I253A/H310A/H435A); test: as above
T5 construct: Positions are EU numbers; also called sample 3; antibody 3
Description: as §1

[9] = target: T1, anti-VEGF/ANG2 antibody (wild-type IgG1 …); test: ELISA assay C, tracer FcγRI-Dig, target 13 ng/mL
[10] = target: T4, anti-P-Selectin antibody (IgG4 subclass …); test: ELISA assay C, tracer FcγRI-Dig, target 13 ng/mL
[11] = target: T2, anti-VEGF/ANG2 antibody (IgG1 subclass …); test: ELISA assay C, tracer FcγRI-Dig, target 13 ng/mL
[12] = target: T3, anti-VEGF/ANG2 antibody (IgG1 subclass …); test: ELISA assay C, tracer FcγRI-Dig, target 13 ng/mL
[13] = target: T5, anti-IGF-1R antibody (IgG1 subclass …); test: ELISA assay C, tracer FcγRI-Dig, target 13 ng/mL
[14] = target: T1, anti-VEGF/ANG2 antibody (wild-type IgG1 …); test: ELISA assay C, tracer FcγRI-Dig, target 2 ng/mL
[15] = target: T4, anti-P-Selectin antibody (IgG4 subclass …); test: ELISA assay C, tracer FcγRI-Dig, target 2 ng/mL
[16] = target: T2, anti-VEGF/ANG2 antibody (IgG1 subclass …); test: ELISA assay C, tracer FcγRI-Dig, target 2 ng/mL
[17] = target: T3, anti-VEGF/ANG2 antibody (IgG1 subclass …); test: ELISA assay C, tracer FcγRI-Dig, target 2 ng/mL
[18] = target: T5, anti-IGF-1R antibody (IgG1 subclass …); test: ELISA assay C, tracer FcγRI-Dig, target 2 ng/mL
[19] = target: T1, anti-VEGF/ANG2 antibody (wild-type IgG1 …); test: ELISA assay B, tracer M1.7.10-Dig, target 2 ng/mL
Description: as §1

[20] = target: T4, anti-P-Selectin antibody (IgG4 subclass …); test: ELISA assay B, tracer M1.7.10-Dig, target 2 ng/mL
Description: as §1

[21] = target: T2, anti-VEGF/ANG2 antibody (IgG1 subclass …); test: ELISA assay B, tracer M1.7.10-Dig, target 2 ng/mL
Description: as §1

[22] = target: T3, anti-VEGF/ANG2 antibody (IgG1 subclass …); test: ELISA assay B, tracer M1.7.10-Dig, target 2 ng/mL
Description: as §1

[23] = target: T5, anti-IGF-1R antibody (IgG1 subclass …); test: ELISA assay B, tracer M1.7.10-Dig, target 2 ng/mL
Description: as §1

| signal [OD405 nm] [1] [OD405 nm] | signal [OD405 nm] [2] [OD405 nm] | signal [OD405 nm] [3] [OD405 nm] | signal [OD405 nm] [4] [OD405 nm] | signal [OD405 nm] [5] [OD405 nm] | signal [OD405 nm] [6] [OD405 nm] | signal [OD405 nm] [7] [OD405 nm] | signal [OD405 nm] [8] [OD405 nm] | signal [OD405 nm] [9] [OD405 nm] | signal [OD405 nm] [10] [OD405 nm] | signal [OD405 nm] [11] [OD405 nm] | signal [OD405 nm] [12] [OD405 nm] | signal [OD405 nm] [13] [OD405 nm] | signal [OD405 nm] [14] [OD405 nm] | signal [OD405 nm] [15] [OD405 nm] | signal [OD405 nm] [16] [OD405 nm] | signal [OD405 nm] [17] [OD405 nm] | signal [OD405 nm] [18] [OD405 nm] | signal [OD405 nm] [19] [OD405 nm] | signal [OD405 nm] [20] [OD405 nm] | also measured | Binder |
| --- | --- | --- | --- | --- | --- | --- | --- | --- | --- | --- | --- | --- | --- | --- | --- | --- | --- | --- | --- | --- | --- |
| 0.046 | 0.196 | 0.035 | 0.043 | 0.048 | 0.216 | 0.035 | 0.05 | 1.17 | 1.16 | 1.23 | 1.14 | 1.21 | 1.19 | 1.19 | 1.22 | 1.17 | 1.26 | 0.043 | 0.049 | signal [OD405 nm] [21]: 0.125 OD405 nm; signal [OD405 nm] [22]: 0.036 OD405 nm; signal [OD405 nm] [23]: 0.047 OD405 nm | anti-PG variant Fc-region antibody M1.3.17 (antibody, V domains shown, Monomeric, bivalent full-length antibody with murine variable domains; Biotinylated when used as capture antibody; also called anti-PG antibody clone 1.3.17; M1.3.17-Bi) VH: EVKLLESGGGLVQPGGSLKLSCAASGIDFRRYWMNWVRQAPGKGLEWIGEIDPDSSTINYTPSLKDKFIISRDNAKNTMYLQMRKVRSEDTALYYCARPYDYGAWFAYWGQGTLVTVSA VL: QAVVTQESALTTSPGETVTLTCRSTTGAVTTSNYANWVQEKPDHLFTGLIGGTNKRAPGVPARFSGSLIGDKAALTITGAQTEDEAIYFCALWYSDHWVFGGGTKLTVL |
| 0.038 | 2.98 | 0.053 | 0.047 | 0.05 | 3.23 | 0.057 | 0.098 | 0.057 | 0.066 | 0.06 | 0.085 | 0.058 | 0.058 | 0.056 | 0.093 | 0.085 | 0.074 | 0.034 | 0.033 | signal [OD405 nm] [21]: 1.73 OD405 nm; signal [OD405 nm] [22]: 0.049 OD405 nm; signal [OD405 nm] [23]: 0.047 OD405 nm | anti-PG variant Fc-region antibody M1.7.24 (monomeric, bivalent) (antibody, V domains shown, Full-length Y-shaped antibody with murine variable domains; Biotinylated when used as capture antibody; also called anti-PG antibody clone 1.7.24; M1.7.24-Bi) VH: EVKLLESGGGLVQPGGSLKLSCAASGFDFSRYWMNWVRQAPGKGLEWIGEITPDSSTINYTPSLKDKFIISRDNAKNTLYLQMIKVRSEDTALYYCVRPYDYGAWFASWGQGTLVTVSA VL: QAVVTQESALTTSPGETVTLTCRSSTGAVTTSNYANWVQEKPDHLFTGLIGGTNKRAPGVPARFSGSLIGDKAALTITGAQTEDEAIYFCALWYSNHWVFGGGTKLTVL |
| 0.039 | 0.053 | 0.039 | 0.061 | 0.051 | 0.21 | 0.052 | 2.9 | 0.07 | 0.052 | 0.061 | 0.064 | 0.175 | 0.077 | 0.067 | 0.072 | 0.077 | 0.082 | 0.036 | 0.032 | signal [OD405 nm] [21]: 0.041 OD405 nm; signal [OD405 nm] [22]: 0.041 OD405 nm; signal [OD405 nm] [23]: 1.48 OD405 nm | anti-AAA variant Fc-region antibody M1.6.22 (antibody, V domains shown, Murine variable domains; also called M1.6.22-Bi) VH: EVQLVESGGDLVKPGGSLKLSCAASGFTFSSYGMSWVRQTPDKRLEWVATISSGGSYIYYPDSVKGRFTISRDNAKNTLYLQMSSLKSEDTAMYYCARLGMITTGYAMDYWGQGTSVTVSS VL: DVLMTQTPLSLPVSLGDQASISCRSSQTIVHSTGHTYLEWFLQKPGQSPKLLIYKVSNRFSGVPDRFSGSGSGTDFTLKISRVEAEDLGVYYCFQGSHVPYTFGGGTKLEIK |
